Values of other authors in article PMC6614495.

Target: Amyloid beta (Homo sapiens) (UniProt P05067)
Sequence (P05067 672-711): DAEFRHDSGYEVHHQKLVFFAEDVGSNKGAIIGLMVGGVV

Chain of Clusterin (ApoJ) (P10909 23-227): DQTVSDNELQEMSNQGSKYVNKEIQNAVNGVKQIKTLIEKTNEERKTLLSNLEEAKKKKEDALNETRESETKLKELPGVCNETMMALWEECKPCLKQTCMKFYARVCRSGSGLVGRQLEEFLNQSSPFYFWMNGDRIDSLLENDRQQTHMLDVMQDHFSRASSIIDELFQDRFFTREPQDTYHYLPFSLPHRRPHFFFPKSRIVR
Chain of Clusterin (ApoJ) (P10909 228-449): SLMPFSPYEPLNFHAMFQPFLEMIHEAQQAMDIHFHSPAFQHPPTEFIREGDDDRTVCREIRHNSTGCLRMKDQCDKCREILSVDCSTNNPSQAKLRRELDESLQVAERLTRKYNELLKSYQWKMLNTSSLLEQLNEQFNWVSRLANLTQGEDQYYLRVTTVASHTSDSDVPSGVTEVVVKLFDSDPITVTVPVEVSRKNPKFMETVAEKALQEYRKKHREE

Kd: 2 nM
Substance: Clusterin (ApoJ) (from UniProt P10909)
